Here are results for 14 molecules from patent publication US20220112288A1 (published 2022).

First the molecules themselves.
B1: 75110_07J24A (antibody, V domains shown)
VH: QAQLQESGPGLVKPSETLSLTCTVSGGSISSYYYNWIRQPAGKGLEWIGRIYTSGRTDYNPSLKSRVTMSADTSKNQFSLKLSSVTAADTAVYYCARDEGPTDAFDIWGQGTMVTVSS
VL: DIVMTQTPLSLPVTPGEPASISCRSSQSLLDSDDGNTYLDWYLQKPGQSPHLLIYTLSYRASGVPDRFSGSGSGSDFTLKISRVEAEDVGVYYCMQRIEFPFTFGPGTKVDIK
notes: Non-clonal AlivaMab Mouse Kappa hybridoma supernatant, captured by anti-mouse IgG Fc (human V regions, mouse Fc)
B2: 75110_01C18A (antibody, V domains shown)
VH: EVQLVESGGGLIQPGGSLRLSCAASGFTVSSNYMNWVRQAPGKGLEWVSVIYAGDNTYSADSVKGRFTISRDNSNNTLCLQMNSLRAEDTAVYYCAREGGTTGAFDIWGQGTMVTVSS
VL: DIQMTQSPSSVSASVGDRVTITCRASQGINSWLAWYQQKPGKAPKLLIYAASSLQSGVPSRFSGSGSGTDFTLTISSLQPEDFATYYCQQGNSFPYTFGQGTKLEIK
notes: as for B1
B3: 75110_05E13A (antibody, V domains shown)
VH: EVQLVESGGDLVKPGGSLRLSCAASGFSFSNAWMSWVRQAPGKGLEWVGRVESKTDGGTTDYAAPVKDRFTISRDDSKYTLYLQMNSLKTEDSAVYYCTIGGGFGLELYGFFDYWGQGTLVTVSS
VL: DIQMTQSPSTLSASVGDRVTITCRASQSISSWLAWYQQKPGKAPMLLIYKASSLESGVPSRFSGSGSGTEFTLTISSLQPDDFATYYCLQYNSYYTFGQGTKLEIK
notes: as for B1
B4: 75110_08A13A (antibody, V domains shown)
VH: EVQLVESGGGLVQPGGSLRLSCAASGFIFSSYWMSWVRQAPGKGLEWVANIKQDGSEKYYMDSVKGRFTISRDNAKNSLYLQMNSLRAEDTAVYYCARDNSYYYYGMDVWGQGTTVTVSS
VL: AIQMTQSPSSLSASVGDRVTITCRASQGIRDDLGWYQQKPGKAPKLLIFAASSLQSGVPSSFSGSGSGTDFTLTISSLQPEDFATYYCLHHYNYPYTFGQGTKLEIK
notes: as for B1
B5: 75110_03I08A (antibody, V domains shown)
VH: QVQLQESGPGLVKPSETLSLTCTVSGGSISSYYWSWIRQPPGKGLEWIGYIYYSGSTNYNPSLKSRVTISVDTSKNQFSLKLSSVTAADTAVYYCAREGEQWFYGLDVWGQGTTVTVSS
VL: EIVLTQSPGTLSLSPGERATLSCRASQSVSSTYLAWYQQKPGQAPRLLIYGSSSRATGIPDRFSGSGSGTDFTLTISRLEPEDFAVYYCQQYGNSFPITFGQGTRLEIK
notes: as for B1
B6: 75110_01L08A (antibody, V domains shown)
VH: QVQLQESGPGLVKPSETLSLTCTVSGGSISHYYWSWIRQPPGKGLEWIGYIHYSGTTNYNPSLKSRVTISVDTSKNQLSLKLRSVTAADTAVYYCARDQGFSSGGMDVWGQGTTVTVSS
VL: not shown
notes: as for B1
B7: 75110_05A11A (antibody, V domains shown)
VH: EVQLVESGGGLVKPGGSLTLSCAASGFTFSNTWMSWVRQAPGKGLEWVGRIKSKIDGGTTDYAAPVKGRFTISRDDSKNTLYLQMNSLKTEDTAVYYCTTSGTYSSGWGLFDYWGQGTLVTVSS
VL: DIQMTQSPSSLSASVGDRVTITCQASQDISNYLNWYQQKPGKAPKLLIYDTSNLEAGVPSRFSGSGSGTHFTLTISSLQPEDIATYYCQQYDNLPFTFGGGTRVEIK
notes: as for B1
B8: 75110_02I18A (antibody, V domains shown)
VH: EVQVVESGGGLVQPGGSLRLSCAASGFTFSSYDMHWVRQATGKGLEWVSTIGTAGDTYYPGSVKGRFTISRENAKNSLYLQMNSLRAGDTAVYYCARGGYYYYGMDVWGQGTTVTVSS
VL: EIVLTQSPGTLSLSPGERATLSCRASQSVSSSYLAWYQQKPGQSPRLLIHGASSRATGIPDRVSGSGSGTDFTLTISRLEPEDFAVYYCQQYGSSPFTFGPGTKVDIK
notes: as for B1
B9: 75110_05F19A (antibody, V domains shown)
VH: B8 VH with V4L, S31N, M34V, A40P, Y101D, M105L
VL: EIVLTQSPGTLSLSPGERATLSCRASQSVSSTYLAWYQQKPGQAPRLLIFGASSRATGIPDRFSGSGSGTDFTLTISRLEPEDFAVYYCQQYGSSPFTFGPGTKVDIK
notes: as for B1
B10: 75110_08K12A (antibody, V domains shown)
VH: B8 VH with V4L, K75E, V92L, G99D
VL: B8 VL with S32T, S44A, H50Y, S54N, V63F, Y92F, S94T
notes: as for B1
B11: 75110_04G02A (antibody, V domains shown)
VH: not shown
VL: DIVMTQSPDSLAVSLGERATINCKSSQSVLYSSNNKNYLAWYQQKPGQPPKLLFYWASARESGVPDRFSGSGSGTDFTLTISSLQAEDVALYYCQQYFGSFPTFGQGTKLEIK
notes: as for B1
B12: 75110_14P08A (antibody, V domains shown)
VH: QVQLQESGPGLVKSSETLSLTCTDSGDSIRSYYWNWIRQPAGKGLEWIGRIYASGSTNYNPSLKSRVIMSADTSKNRFSLKLSSVTAADTAVYYCARDGGVGDSLDYWGQGTLVTVSS
VL: B1 VL with H51Q, S75T
notes: Tested as clonal hybridoma supernatant from AlivaMab Mouse Kappa mice: human variable regions, human kappa, mouse Fc
B13: 75110_14I16A (antibody, V domains shown)
VH: QVQLQESGPGLVKPSETLSLTCTVSNGSISSYYWSWIRQSAGKGLEWIGRIYTSGSTNYNPSLKSRVTMLVDTSKNQFSLKLSSVTAADTAVYYCARDREDYYYYGMDVWGQGTTVTVSS
VL: DIQMTQSPSSLSASVGDRVTITCQASHDISNYLNWYQQKPGKAPKLLLYYASNLETGVPSRFSGSGSGTDFTFTITSLQPEDIGTYSCQQYDNLPLTFGGGTKVEIK
notes: Tested as clonal hybridoma supernatant from AlivaMab Mouse Kappa mice: human variable regions, human kappa, mouse Fc; also called 75110_14116A
B14: 75110_14N19A (antibody, V domains shown)
VH: QVQLQESGPGLVKPSETLSLTCTVSGGSISRYYWSWIRQPAGKGLEWIGRICTSENPNYNPALKSRVTMSVDTSKNQFSLKLSSVTAADTAVYYCARELERLNYYGMDVWGQGTTVTVSS
VL: DIQMTQFPSSLSASVGDRVTITCQASQDISNYLNWYQQKPGKAPKLLIYDASNLESGVPSRFSGRGSGTDFTFTISSLQPEDFATFYCQQYDTLPITFGQGTRLEIK
notes: as for B12

Substitutions are numbered along the chain they refer to.

One assay has as its target T1, Recombinant human CD4 (R&D Systems, Cat. 10327-CD) (human, UniProt P01730 26-390, limits assumed).
T1 construct: Bought soluble recombinant protein used as analyte at 100 nM; also called huCD4
As to the kind of experiment: BLI (Octet Red384), non-clonal supernatant on AMC sensor, 100 nM human CD4. On the technique in general: BLI is a label-free optical method that tracks binding on a fibre tip over time.
As to B1, the Response came to 0.14.

Take B2: the Response was 0.25.

B3: the Response worked out at 0.33.

As to B4, the Response turned out to be 0.35.

Regarding B5, the Response was 0.07.

On to B6, for which the Response amounted to 0.09.

B7: the Response turned out to be 0.15.

Consider B8, for which the Response is 0.16.

Regarding B9, the Response is 0.18.

Turning to B10, the Response was found to be 0.11.

As to B11, the Response amounted to 0.21.

Another assay deals with T2, human CD4 on human PBMCs (human, UniProt P01730 26-458).
T2 construct: whole, on cells; the CD4-positive gate was set with the control antibodies OKT4 and RPA-T4; also called hCD4
Nature of the assay: FACS, clonal hybridoma supernatant on human PBMCs.
As for B12, the “% CD4 Stain” value was found to be 28.3% and the “gMFI of CD4+” value turned out to be 58500 gMFI.

Regarding B13, the “% CD4 Stain” value is 33.2% and the “gMFI of CD4+” value turned out to be 298000 gMFI.

Consider B14, for which the “% CD4 Stain” value worked out at 32.5% and the “gMFI of CD4+” value came to 265000 gMFI.

The target in the next assay is T1, Recombinant human CD4 (R&D Systems, …). Nature of the assay: BLI (Octet Red384), non-clonal supernatant on AMC sensor, 100 nM human CD4, 1:1 local fit.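 Also: hybridoma antibodies captured from supernatant, single CD4 concentration as analyte, association and dissociation phases fitted together, giving single-point kinetic estimates per supernatant.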
A word on the Kd: it is the concentration at which binding is half-saturated. In general, koff refers to the first-order rate constant of dissociation. For orientation: kon means the rate constant with which the complex forms. For the molecule B1, the Kd was less than 0.001 nM, the koff is less than 1e-07 s⁻¹ and the kon turned out to be 77000 M⁻¹ s⁻¹.

As to B2, the Kd worked out at 16 nM, the dissociation rate constant (koff) worked out at 0.0013 s⁻¹ and the association rate constant (kon) worked out at 86000 M⁻¹ s⁻¹.

With B3, the Kd is 7.4 nM, the koff was found to be 0.0012 s⁻¹ and the on-rate (kon) stood at 160000 M⁻¹ s⁻¹.

As for B4, the Kd turned out to be 4.4 nM, the koff amounted to 0.001 s⁻¹ and the kon was 230000 M⁻¹ s⁻¹.

Take B5: the Kd is less than 0.001 nM, the koff was less than 1e-07 s⁻¹ and the on-rate constant (kon) stood at 37000 M⁻¹ s⁻¹.

As to B6, the Kd was 4.1 nM, the koff is 0.00037 s⁻¹ and the on-rate (kon) stood at 91000 M⁻¹ s⁻¹.

Consider B7, for which the Kd was 3.2 nM, the koff is 0.00055 s⁻¹ and the kon came out at 170000 M⁻¹ s⁻¹.

For the molecule B8, the dissociation constant Kd stood at 9 nM, the koff was 0.0033 s⁻¹ and the kon was found to be 370000 M⁻¹ s⁻¹.

B9: the Kd was determined as 0.032 nM, the off-rate (koff) was 4.4e-06 s⁻¹ and the kon is 140000 M⁻¹ s⁻¹.

For B10, the Kd is 4.5 nM, the koff came to 0.0031 s⁻¹ and the association rate constant (kon) stood at 700000 M⁻¹ s⁻¹.

In the case of B11, the Kd is 0.76 nM, the koff stood at 0.00017 s⁻¹ and the kon was 220000 M⁻¹ s⁻¹.
